# Assay results published in patent US7468258.
# T1: recombinant His-tagged VWF73 peptide substrate labeled with two fluoresceins
# T1 chain: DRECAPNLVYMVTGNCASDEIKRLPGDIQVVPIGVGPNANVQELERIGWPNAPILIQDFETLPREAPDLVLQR
# Biological target: T1, recombinant His-tagged VWF73 peptide …
protein,measurement,value
ADAMTS13 (A Disintegrin-like And Metalloprotease with ThromboSpondin type 1 motif) (protein) AAGGILHLELLVAVGPDVFQAHQEDTERYVLTNLNIGAELLRDPSLGAQFRVHLVKMVILTEPEGAPNITANLTSSLLSVCGWSQTINPEDDTDPGHADLVLYITRFDLELPDGNRQVRGVTQLGGACSPTWSCLITEDTGFDLGVTIAHEIGHSFGLEHDGAPGSGCGPSGHVMASDGAAPRAGLAWSPCSRRQLLSLLSAGRARCVWDPPRPQPGSAGHPPDAQPGLYYSANEQCRVAFGPKAVACTFAREHLDMCQALSCHTDPLDQSSCSRLLVPLLDGTECGVEKWCSKGRCRSLVELTPIAAVHGRWSSWGPRSPCSRSCGGGVVTRRRQCNNPRPAFGGRACVGADLQAEMCNTQACEKTQLEFMSQQCARTDGQPLRSSPGGASFYHWGAAVPHSQGDALCRHMCRAIGESFIMKRGDSFLDGTRCMPSGPREDGTLSLCVSGSCRTFGCDGRMDSQQVWDRCQVCGGDNSTCSPRKGSFTAGRAREYVTFLTVTPNLTSVYIANHRPLFTHLAVRIGGRYVVAGKMSISPNTTYPSLLEDGRVEYRVALTEDRLPRLEEIRIWGPLQEDADIQVYRRYGEEYGNLTRPDITFTYFQPKPRQAWVWAAVRGPCSVSCGAGLRWVNYSCLDQARKELVETVQCQGSQQPPAWPEACVLEPCPPYWAVGDFGPCSASCGGGLRERPVRCVEAQGSLLKTLPPARCRAGAQQPAVALETCNPQPCPARWEVSEPSSCTSAGGAGLALENETCVPGADGLEAPVTEGPGSVDEKLPAPEPCVGMSCPPGWGHLDATSAGEKAPSPWGSIRTGAQAAHVWTPAAGSCSVSCGRGLMELRFLCMDSALRVPVQEELCGLASKPGSRREVCQAVPCPARWQYKLAACSVSCGRGVVRRILYCARAHGEDDGEEILLDTQCQGLPRPEPQEACSLEPCPPRWKVMSLGPCSASCGLGTARRSVACVQLDQGQDVEVDEAACAALVRPEASVPCLIADCTYRWHVGTWMECSVSCGDGIQRRRDTCLGPQAQAPVPADFCQHLPKPVTVRGCWAGPCVGQGTPSLVPHEEAAAPGRTTATPAGASLEWSQARGLLFSPAPQPRRLLPGPQENSVQSSACGRQHLEPTGTIDMRGPGQADCAVAIGRPLGEVVTLRVLESSLNCSAGDMLLLWGRLTWRKMCRKLLDMTFSSKTNTLVVRQRCGRPGGGVLLRYGSQLAPETFYRECDMQLFGPWGEIVSPSLSPATSNAGGCRLFINVAPHARIAIHALATNMGAGTEGANASYILIRDTHSLRTTAFHGQQVLYWESESSQAEMEFSEGFLKAQASLRGQYWTLQSWVPEMQDPQSWKGKEGT,"fluorescence of the recombinant peptide during incubation (FRET self-quenching cleavage assay, 96 well plate, fluorometer)","With normal pooled plasma (PNP), there is steady increase of fluorescence over time"
